Earlier results, collected in publication PMC4448172.

Target: KV1.3 (UniProt P22001)
Chain of UniProt P22001 (P22001 whole entry): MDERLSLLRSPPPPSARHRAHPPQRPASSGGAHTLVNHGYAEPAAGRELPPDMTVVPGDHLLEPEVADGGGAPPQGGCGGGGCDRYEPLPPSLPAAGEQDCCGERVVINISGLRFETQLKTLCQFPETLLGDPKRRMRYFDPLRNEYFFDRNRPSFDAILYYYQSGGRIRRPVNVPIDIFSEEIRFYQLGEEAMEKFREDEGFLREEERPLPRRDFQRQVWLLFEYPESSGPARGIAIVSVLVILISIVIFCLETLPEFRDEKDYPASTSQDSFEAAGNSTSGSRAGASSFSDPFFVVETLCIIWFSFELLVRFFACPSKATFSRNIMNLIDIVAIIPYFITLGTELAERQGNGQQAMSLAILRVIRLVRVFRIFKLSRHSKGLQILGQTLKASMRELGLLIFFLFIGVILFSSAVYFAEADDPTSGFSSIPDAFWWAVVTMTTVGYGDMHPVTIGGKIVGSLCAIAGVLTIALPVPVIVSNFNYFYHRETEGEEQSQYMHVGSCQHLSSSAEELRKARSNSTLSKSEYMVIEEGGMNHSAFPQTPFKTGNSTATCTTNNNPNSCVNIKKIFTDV

ShK (from UniProt P29187)
Kd: 0.011 nM
